In the NTF2 design screens of Basanta et al. (2020) one finds protease stability score data, which are given here for 47 sequences.

The data set in a line: protease stability score; higher = more stable; yeast display proteolysis, trypsin and chymotrypsin.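 Also: relative to predicted unfolded state with 0 unfolded-like and 1 meaning tenfold more protease.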
The sequence “DEWERLTEVMIRIFEEIVHTGDERVWEEMADPHVKVHIDGVHFHGREDLLYLLRKMGANVFDLKRSDIQGEKVYLDIQTEFNGQKRDSRFLIVKFNGRWLLESISIH” displayed a protease stability score of 1.47. The same measure for “DEWHELANEIMQLLIELWLTGDEEIVLKLADPNVKVKIIVNGRTYSNHGREMFHDWHRRVDYIHEIRIKDVTFVNGVVISDTHVDGTINGVRMRTDTKMIVVVVNGKLKSAEYRVE”: 1.11.

On to “DEWHEYNEKLFELWEKANKTGDERLLRLLIDPHARLHFNGKHFHGREEVARLMTELRVDRFEIKRMEIQGEKLTVEGREDVTQGDFRFESNVNIIFLKINGRWSLERQHSE”, for which the protease stability score is 0.944. Regarding “DEWKEDSRRAIELELRHLQTGDEDLTEKYADPHARVHIGDKEFHGRDHYIETLRRMGIKHVEVREIREQGDFLKMDVHVNVDGRELTVHFVMRKVNGRWRIHMIEVR”, the protease stability score turned out to be 1.11. Then “DEWKRLALEVLRLWEEFMSTGDEKSVEELADPNVRILYDGVQLHGMDEVRRHLKELREHSHHVEIRRATVIDGRVHVDGTLDVTIEIGDKKIREEIRVKIHIIKVNGKWFVHSVEFR”, with 1.49; and “DEWLEIAHRFVEELVRSLLTGDEDTLTKLIDPNVRLNINGQEVVGMTEVNRAWHELRIEDEHIRRIDVQGDYVRIHSQRRGEVNGVHTEFEVVIIISKFDGRWVIKSEHVH”, with 1.24; and “DEWLEMAMRIIFRYLLLLATGDEDIVNHYMDPNVKIDVNGREEHGRERALEQLEEIRRQYPGLTLTHLHIEDLKVVGNYVRVDGYVEGRIDGRRIELKTEFIILKINGRWRMHSVKEH”, with 1.74. For the sequence “DEWREHMEKLADDFSHAMLTGNEESMDKFLDPHTRSIVNGVERHGREAFRIWINQIDHIRDVEFRHVDTQGNKIRSHTRFHGEVNGRRYIVEIEVILHVIDGRVKSVEIRNL”, the protease stability score came to 1.38. For “DEWTEDVREALHLIKHSIETGDPRLIEELADPNVRVLYGNKVYHGREKLSDLVTEWRTTHVDFHHVRVIGDKIDIDVIIRSEYNGRVVDLKEKIVATKINGKWILHSRNIH”, the protease stability score was found to be 0.531. The sequence “DEWTHVLHEMLKLLLDAWDTGDEKVLHRMMDPNAKSEINGREFVGMHHISTWLKRERDRLGVEIHIHVRRINFQGDKLEVDSHFNVIIGDKEFHRSTRIELIIVNGRVHSLHIKID” displayed a protease stability score of 0.212. Then “DEYDHIAKLMVKLWLEWYLTGDEDYFNHYADPEVRSEVGDKRFHGRELFMRYIWEHHRERGVEIEIIVRRVEVQGEKAEVDGELIVRQGDKEHRLRVHIELKVVNGVLKKIRIEFR”, with 0.561. For “DEYEREYKKFIDDMLHAWLTGDEDTLQELVDPNARLHFNGQELHGRDIWLRNYREHGMKVKSYHIEHREIQGEKIIIRGRLNGHVNGRNSNMDIILIIEKVDGRWVMQDIRIS”, the protease stability score is 1.98. In the case of “DEYERIWRDLVKLILHAHKTGDEDHLKRLMDPNAKIHVGEFEMIGRTDEELWKRLLGIERFHIHRIDIRTISIFDGRLHIEVDSDGQINGKRVEHHIEITLVIIDGKLHSVSHTLK”, the protease stability score came out at 1.1. The sequence “DEYKRDADEVIRLWAEAMETGDEKLFLELFDPDTRSIFNGVELHGRQDIEMWRNRYDHVRHVRTEVEDSHIYNGRVEDHVRLILDVEVNGQREHHSHEILVYSVKFDGRWHFTMVEIR” came in with a protease stability score of 0.607. “DEYREEARKLMHDTAKHLHTGDEDMTNHYLDPNVKIQINGQEIHGMDKFEHDSRRFKGAKNDVRFELRLIQVIGDKVRIDGELYVRIRVGDKEYSFEVKVDIVVTKVDGVWKIKEIKIE”: the protease stability score is 0.806. In turn, “DEYWHHMKKSFEDLHDARHTGDERFVMEMLDPNVRFDINGVEFIGREDWRRHLQELGVDHEEIILHDYHIFNGRVELDVRTVHHIGDYELRRDEHMDLRKVNGRWHIKEIRVR” returned a protease stability score of 0.209. “DHDDEESKHWLEFYLEIVQTGDEDSHKRLADPNTRLHIDGQVMHGREFMTMWFRHLVSKFKNARVEIRLRDTRKINGRVELDVELIFRVGDKEERREVQIFADKVDGRWHIKEFVVH” returned a protease stability score of 2.22. Turning to “DHDDEMLEHFMNLWLHAVATGDEELLSNLLDPNVREIINGKTIHGREEFLKLYHELARRIDHIHIRVRWYDMQGEFLISKTEIEFRFNGVNLKFETKMIVLKINGKWILHSIRFE”, the protease stability score was found to be 1.26. In the case of “DHDDERVEHFARHWVHNFLTGDWKKLTDQVDPHVRLDVNGQKFHGREAIREWLEHILREIRVHDLKFDHIHLQGDYTIIEGTQIIHYNGRTEIRKTRIEFIIVDGKFQEIRIKTL”, the protease stability score is 1.43. The same measure for “DHDDHMREHLIELFIRWTTTGDFDELLRLVDPNARFDVNGREIHGWDVFMKMYEDTRHLLGADHAEVRNKDERFQGDKVTITIEVTIEVGDKEHREERELYVRKVDGKWTMKSLKIR”: 0.703. The same measure for “DHDEHDADRAVKWFLEDLRTGDEQLNERQADPHVRNDFNGVEIHGREEFLKHLSKLSNELGIKHLHVRHHRVYDGRLELHIELRFDGKTITLIIIKLKVNGRWYVESMHVH”: 0.128.

In the case of “DHDEKRVREILELFLNAITTGDEETLRHLLDPNVKTDINGVELHGWKDILHHLMEMRIHVRHYETRHLNKIGEYLHLEVHVYGEHHFDGRTREDTYYVNVIILKVNGRWHLHQFSVH”, the protease stability score was determined as 1.39.

For the sequence “DHDEKVSKEVLHEFLHVLRTGNWDHLIKNIDPNARLEVDGVDIHGRENVHKFLDEFHKRMGVDHHELHDEKMTIIDGVLQIDLDTTTEFNGRRFKTTIHLFVLKINGRWTFKTLIIKHE”, the protease stability score amounted to 2.03. Then “DHDEKWAREVIRLLIEDIVTGDEESLSKLFDPHVRIEIGDKEHIGMEIALKLMIELWERLGVKHIHFHMSDIRVYDGRLDVDSRLHHVVNGRKHETKVRIFIRKINGRWVIESLVIH”, with 2.25.

“DHDEREYHHFVQILIHSMRTGDWVKLEELMDPHVLIRIGDKELHGREELYRFMLQARIELEVKDYRLYGDKVELDTLLSMLIGDKLSETDSRMKLEKVDGKWIIREIFVDPETKKRLLD” gave a protease stability score of 1.64. “DHDKEYADRSIELWLKSHETGDEELVMRLADPHARVYVGEYEDHGREMVMIMLRVLGVDHYSVRSWHVQGDKVSITGELQVGDKKFRSHLTVRKVNGRWLLSEVRIG” came in with a protease stability score of 1.16.

“DHDTRRHEKILSDYAHALHTGNFHMLKELMDPHVRLEIGDKEFVGREEVMRYLQHIRSYIHRLRIDHIEIQGDKIHSDVREHLHFEIGDKDHNHDTRVEQLWLKVNGRWLLQQIVVR”: the protease stability score was 2.16. For “DHEDDEFDFAIELWVTIMKTGDEEFLERYVDPHARLIVGDKRFHGREVIEFMLRRIDVLDRIEVEHRQSVNGRMIIHQHLHHAIDGRRNEVRMRVVVHKVDGRWDLDELQFD”, the protease stability score turned out to be 1.36. “DHEDEHSEEMEQLIFTWLQTGDWEAFMKFLDPRVILHIGDKTVIGREKFIEFIEQFKNIRMKIHDVQVQGNKIHIDVRTDIDGREYREHIHIHIVNGRIRHIEVRHH” returned a protease stability score of 1.92. In the case of “DHEDELKMHLFEHLLEVLMTGDEHRKTRLLDPDARSHLDINGQKIDVMGWEEVTKLDRKLHEEIRFHEIHIREWELQGDKIFVVGETRIEINGVEFRTEVRIIVVVVNGRLKALFFHVH”, the protease stability score is 0.271. “DHEDELMERLARLFVHALQTGDEDLLRRYADPNTLINVNGKNLHGMEEESRFWKEIRIEHTEVERIHVQGNKSTVFVRVFFRIGDKHVHEHRILRLEFVDGRLRSVELERH” showed a protease stability score of 1.69. “DHEDERETWAYHMLIHAFRTGDERIHEELLDPNVRTDVDGRTSHGWENVVKLVHHVLRLLGIDHIRLRRSDVVDGRVYMQGDIRVNGRTIETRVTIQVINGRVHSWSVRAE”: the protease stability score was found to be 1.6. Then “DHEDERSRELTQILWKAWLTGDEELFHRLHDPDVRTEFDGREYHGWERFSELLNQFKNVRIRLRDYRIQGEKSKLDTQINIGDKRTRFHIEIYIIDGRLKNMRFEIE”, with 0.868; and “DHEDHLSELAEHLIHHHWLTGDEHLLERMADPHAQIIIGDKHLHGREEVSRWLIEFMHKFKNMRLQIDHRHLIDGRLHVEVTINIGDKRLKVHRHSIKINGQWHLKSIIIE”, with 1.09. The sequence “DHEDKLHEEAFRRWLHVFKTGNEDLIRRLVDPHVKLEVDGQDFHGREELLRFLIERIRNLGIKVSDVKVKHVDIQGDKLDIDVRFIVEFNGRRTEINEWLIMEKIDGRWVVQSIHIR” showed a protease stability score of 1.3.

“DHEDRLAEEIARFIYHYWETGDEEEISDLFDPHVRVEININGKRIEKVGREHFYHWFHYWRERFKNLKINFKRLDPVNGKVHVETRVHQGDKERRMILEFDVVNGRIRVFRMEVHEN”: the protease stability score worked out at 2.5.

As to “DHEEDLSHEFLERLVSAWRTGDEHTWNRLADPNYKLEINGRHSVGREDSLRVIKDIRDKYKGLTIDDVTIKDVRIFDGVIRAKMVLQLNFNGVNIEEEVDIVIEKVDGRWFLKFEIVK”, the protease stability score came out at 0.653.

Sequence “DHEEEEAERMARKIIHVLHTGDFDSWSHLADPNVRIEVGDKELHGREDLRKLFHLWDERFKNATIMVKDMRVQGNKVHLDHRLNIDGRTIHTTSEIIVINGRIHTVIIDEK” gave a protease stability score of 2.29.

Consider “DHEEEEEHFLLEHMIEAIVTGDEDRLKELVDPHVRMDIDGVIIHGMDDIARWLKELRSIIRHFIPRDRKWQGNKIHIEGEVHGELRFDGRNQTDTFRIEIVSHKINGRWVIRSESFR”, for which the protease stability score is 1.18. “DHEEEEMRDRFKVLMRALLTGDFEELIRQMDPDYRLDINGRELIGREEYRKHLEKQLKHWRWKRIDVKHVETQGDKLHARINVHGDIDGRDINTETDWHLEVIDGRVRSEKISIR” gave a protease stability score of 1.58. As for “DHEEEHALRIMQLLLWLDFTGDEETIHHLMDPHVRSVWIVGDKTITRHGRENVLKLFRDLGFKHVKDFRIRDVSAFDGRVDLKGRIDGQYGDKRETWDMDVELNVVDGRLKFFIIRFK”, the protease stability score stood at 1.69.

With “DHEEEHARSIIELLLYAFTTGNEKLLRRLIDPDAKVDIDGKSLHGMEDVSRHLREMIDHWRFRHIDVRRLEVQGEWIHITGRWDGDQGDKKVERDVEVRVLVVDGRVKHRSIHFR”, the protease stability score came out at 1.34.

In turn, “DHEEEIALEVAEKILKLWLTGDEEIMMELFDPNTRVEINGKKVHGRENVMHILHHEWREIRLKDLRIKRHESVGNKVHLDGRVNGQINGRKHSIHVRIDIEVVDGRITNISIEHS” came in with a protease stability score of 1.44.

For the sequence “DHEEEIAQKAFTDWHHALLTGDWERHEEMFDPDVREDINGVDLHGRELIVKQVRRDLQDFGIKHFEIRIRRLSFQGNKVIFDGIIIFHVDGREERFHVRVLFRKINGVWYLHSRFLH”, the protease stability score is 1.06.

For “DHEEEKAVEIARLLLEAELTGDWKTFSHLADPHTRWIERIDGREDSRHGMEEVVRIIIERLKEIRMEVRIRRKRVVGDKVELDGELIMRINGVEIRVEVRIIIIIVGDKVKFIEITIH”, the protease stability score came to 0.83. The same measure for “DHEEEKLKESLDRLEDINRTGDWHKIHDMLDPHVRVLVNGRKHHGRETATHIYREWRITDIQFKDIRLIGDKVHIHMESRVSVNGREHSVKSELILIKVDGQWYMHAEQFL”: 1.05. The same measure for “DHEEELAKSMLEIWREVVWTGDEDSLQKLLDPDARYHLVVDGKRVERIGMEHIRKELHRLFREWRIEDMHIHEIRVVDGVAHTRTRLVVNIDGRIVDTETVINVVSFDGRVRSVTVDIR”: 1.25.
